# Measurements as given in the supplement of paper PMC10567573.
# ± gives the standard deviation.
# Assay: protein stability index of a GFP-peptide fusion (GPS, HEK-293T) (PSI 1-6); higher = more stable
# [1] = treatment: DMSO, c terminus: a fixed tail appended
# [2] = treatment: MLN4924 1 uM, 8 h, c terminus: a fixed tail appended
# [3] = treatment: DMSO, c terminus: native
# [4] = treatment: MLN4924 1 uM, 8 h, c terminus: native
# 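Note: 24-mer peptide tiles fused after GFP, lentivirally expressed, FACS-sorted into six equal bins by GFP/DsRed ratio, decoded by Illumina sequencing, PSI is the read-weighted mean bin number.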
Sequence,protein stability index [1],protein stability index [2],protein stability index [3],protein stability index [4]
LLLAYNSSARIPKCPWMEGGEMSP [INTS4],2.27 ± 0.32,2.17 ± 0.14,–,–
LLLFLVFVIVLFFIYHFMQAEEGN [EMD],2.23 ± 0.15,2.42 ± 0.15,–,–
LLLSHIHASSYISPEKEEQYIAQF [PRAME],2.42 ± 0.54,2.37 ± 0.4,–,–
LLNLVDHTEVVRDLTFAPDGSLIL [WSB1],2.24 ± 0.13,2.16 ± 0.16,–,–
LLNPNLKDTVICAMKITQEPQGLG [SPACA3],2.4 ± 0.4,2.51 ± 0.21,–,–
LLPKSRENYLNRCMDQERLRREST [FCHO1],3.31 ± 0.17,3.21 ± 0.16,–,–
LLRTFDAGEFTGWEKVGSGGFGQV [RIPK4],2.43 ± 0.56,2.53 ± 0.094,–,–
LLTIGDANGEIQRHAEQQALRLEV [CARM1],3.53 ± 0.27,3.71 ± 0.11,–,–
LLTTSGIQFKKHEEEGIETQYFAE [CNOT7],4.13 ± 0.13,4.19 ± 0.11,–,–
LLYTSLPDFCHKFLPGYVGGIQEG [DHCR7],2.58 ± 0.58,2.71 ± 0.63,–,–
LMADLVADISEAEQRTIQAQKESL [APBB1IP],3.5 ± 0.56,3.6 ± 0.45,–,–
LMAGCIQEARERWNFDFVTETPLE [CDKN1A],2.84 ± 0.67,2.92 ± 0.33,–,–
LMVGPNFRVGKKIGCGNFGELRLG [CSNK1G3],1.9 ± 0.23,2.58 ± 0.59,–,–
LPAGPLPAPLLVLCPSRAELDRWL [PLEKHN1],2.81 ± 0.16,2.6 ± 0.22,–,–
LPCFNGRVVSWLVSAEGSHPDPAP [DVL3],2.64 ± 0.24,2.53 ± 0.28,–,–
LPDPREACGSSSYVASIVDGGESR [RBMY1A1],4.74 ± 0.24,4.64 ± 0.14,–,–
LPELFHKIGVGAMTWSPLACGIVS [KCNAB2],2.74 ± 0.42,2.84 ± 0.46,–,–
LPELKANPFKERICRVFSTSPAKD [CIB1],3.46 ± 0.08,3.58 ± 0.2,–,–
LPGACNIPANVSNCNWFCEGSFNG [KRT33B],2.33 ± 0.27,2.36 ± 0.22,–,–
LPMLSVDMENKENGSVGVKNSMEN [SAMD13],5.09 ± 0.25,5.18 ± 0.27,–,–
LPPTPLLLFPEEEATNGREGLLRF [AUP1],3.7 ± 0.33,3.73 ± 0.13,–,–
LPVVNAVGEIVGIITRHNLTYEFL [CLCN6],3.07 ± 0.43,2.75 ± 0.66,–,–
LQDIKTAGPQSQVLCGVVMDRSLV [ADD1],2.98 ± 0.22,2.91 ± 0.19,–,–

Sequence,protein stability index [1],protein stability index [2],protein stability index [3],protein stability index [4]
LQEKQKNEKLISLQEQLQRFLKK [TAF7L],–,–,4.51 ± 0.29,4.6 ± 0.15
LQFEAEMARLQEEHGDQLLSIRCQ [MTUS2],3.99 ± 0.12,3.92 ± 0.51,–,–
LQGKDAWLPLHYAAWQGHLPIVKL [RIPK4],2.21 ± 0.38,2.48 ± 0.42,–,–
LREMLSKKHAAYAWPFYKPVDAEA [BRD3],2.54 ± 0.26,2.99 ± 0.16,–,–
LRGKECCINRFQQVESRWGYSGTS [BTBD1],2.47 ± 0.18,2.72 ± 0.16,–,–
LRKSDMLEKEQVAHIRAERDILVE [STK38L],3.8 ± 0.35,4.17 ± 0.13,–,–
LRLCRLWPRNPPSRLLGAAAGQRS [DNAJC4],2.75 ± 0.54,2.7 ± 0.39,–,–
LRLFGRVLERAACLRRCKRTLPAF [P3H4],2.37 ± 0.46,2.16 ± 0.53,–,–
LRLPMLNTEVVQVAAGRTQKAGVT [NEK8],3.1 ± 0.33,3.47 ± 0.23,–,–
LRSCYFSDPDCSMRPTLIDLLPTF [FBXO39],2.46 ± 0.35,2.2 ± 0.26,–,–
LRTHIDAIILALPEDLQGILLKTG [DENND6A],2.17 ± 0.31,2.4 ± 0.084,–,–
LRTRVKTTGIVETHFTFKDLHFKM [GNAI1],–,2.14 ± 0.62,–,–
LRYYYDKNIIHKTSGKRYVYRFVC [ETS2],2.79 ± 0.48,2.53 ± 0.62,–,–
LSEASGGRAENGERSDLEEDNERE [ZC3H15],5.53 ± 0.47,5.81 ± 0.062,–,–
LSELLRYHTSQSGDEMTSLSEYVS [HSP90AB1],3.27 ± 0.23,3.6 ± 0.21,–,–
LSMVSECLFSLINGDDMFVTFAAM [MCOLN1],2.35 ± 0.43,2.31 ± 0.3,–,–
LSNLVGKPSENHPLHNSGLLSLDP [MED27],3.87 ± 0.28,4.13 ± 0.26,–,–
LSPISHGNTIALFFRSLLPNYTME [TCF25],3.25 ± 0.47,2.33 ± 0.7,–,–
LSSGMAVAGMPTAYDLSSVIASGS [CARM1],3.02 ± 0.22,2.9 ± 0.41,–,–
LSSSSARFLSRSIPSLQSEYVHY [CDC14A],–,–,3.19 ± 0.27,3.06 ± 0.26
LSTHNWTYWQCGQYLGVGPGAHGR [RSAD1],2.31 ± 0.21,1.99 ± 0.27,–,–
LSVAPQIGMPFNQLGTLAGSKYYN [SMG5],2.67 ± 0.15,2.71 ± 0.011,–,–
